This test deals with FZD1/2/4/5/7/8. Briefly: cell-based or functional assay.

The values below come from patent US20250270332A1.

B1: CH3 (Dia-CH3-Dia) (bispecific antibody)
chain: MNLLLILTFVAAAVAEFEVQLVESGGGLVQPGGSLRLSCAASGFNIGSSSIHWVRQAPGKGLEWVASIYSAFASTSYADSVKGRFTISADTSKNTAYLQMNSLRAEDTAVYYCARYHFPFGFALDYWGQGTLVTVSSGGGGSDIQMTQSPSSLSASVGDRVTITCRASQSVSSAVAWYQQKPGKAPKLLIYSASSLYSGVPSRFSGSRSGTDFTLTISSLQPEDFATYYCQQGVYLFTFGQGTKVEIKDKTHTKVEPKTSDKTHTCPPCPGQPREPQVYTLPPSREEMTKNQVSLTCLVKGFYPSDIAVEWESNGQPENNYKTTPPVLDSDGSFFLYSKLTVDKSRWQQGNVFSCSVMHEALHNHYTQKSLSLSPGKGTTAASGSSGGSSSGAGRTEVQLVESGGGLVQPGGSLRLSCAASGFNISYSSIHWVRQAPGKGLEWVAYISSYYGYTYYADSVKGRFTISADTSKNTAYLQMNSLRAEDTAVYYCARAHYFPWAGAMDYWGQGTLVTVSSGGGGSDIQMTQSPSSLSASVGDRVTITCRASQSVSSAVAWYQQKPGKAPKLLIYSASSLYSGVPSRFSGSRSGTDFTLTISSLQPEDFATYYCQQYSWGPFTFGQGTKVEIK
In turn, B1 gave a Maximal Signal (% Wnt3a maxima) (% Wnt3a maxima) of 22.

B2: Fab-Dia (bispecific antibody)
heavy: EVQLVESGGGLVQPGGSLRLSCAASGFNIHSSSIHWVRQAPGKGLEWVAATYSSFGSITYADSVKGRFTISADTSKNTAYLQMNSLRAEDTAVYYCARYHHPFGYALDYWGQGTLVTVSSASTKGPSVFPLAPSSKSTSGGTAALGCLVKDYFPEPVTVSWNSGALTSGVHTFPAVLQSSGLYSLSSVVTVPSSSLGTQTYICNVNHKPSNTKVDKKVEPKSCDKTHTGGSGGEVQLVESGGGLVQPGGSLRLSCAASGFTISYSSIHWVRQAPGKGLEWVASISPYYGYTYYADSVKGRFTISADTSKNTAYLQMNSLRAEDTAVYYCARSSYFPWFSAMDYWGQGTLVTVSSGGGGSDIQMTQSPSSLSASVGDRVTITCRASQSVSSAVAWYQQKPGKAPKLLIYSASSLYSGVPSRFSGSRSGTDFTLTISSLQPEDFATYYCQQYYWPITFGQGTKVEIK
light: DIQMTQSPSSLSASVGDRVTITCRASQSVSSAVAWYQQKPGKAPKLLIYSASSLYSGVPSRFSGSRSGTDFTLTISSLQPEDFATYYCQQGVYLFTFGQGTKVEIKRTVAAPSVFIFPPSDEQLKSGTASVVCLLNNFYPREAKVQWKVDNALQSGNSQESVTEQDSKDSTYSLSSTLTLSKADYEKHKVYACEVTHQGLSSPVTKSFNRGECGGGGSEVQLVESGGGLVQPGGSLRLSCAASGFTISSYYIHWVRQAPGKGLEWVASIYSSYGYTSYADSVKGRFTISADTSKNTAYLQMNSLRAEDTAVYYCARTVRGSKKPYFSGWAMDYWGQGTLVTVSSGGGGSDIQMTQSPSSLSASVGDRVTITCRASQSVSSAVAWYQQKPGKAPKLLIYSASSLYSGVPSRFSGSRSGTDFTLTISSLQPEDFATYYCQQYYFLITFGQGTKVEIK
In turn, B2 returned an EC50 (nM), TOPFLASH assay of 0.4 nM and a Maximal Signal (% Wnt3a maxima) (% Wnt3a maxima) of 42.

B3: CT0003 (bispecific antibody)
chain 1: MNLLLILTFVAAAVAEFEVQLVESGGGLVQPGGSLRLSCAASGFNISSYYIHWVRQAPGKGLEWVASIYSSYGYTSYADSVKGRFTISADTSKNTAYLQMNSLRAEDTAVYYCARTVRGSKKPYFSGWAMDYWGQGTLVTVSSGGGGSDIQMTQSPSSLSASVGDRVTITCRASQSVSSAVAWYQQKPGKAPKLLIYSASSLYSGVPSRFSGSRSGTDFTLTISSLQPEDFATYYCQQYSWGPFTFGQGTKVEIKLEDKTHTKVEPKSSDKTHNCPPCPAPELLGGPSVFLFPPKPKDTLMISRTPEVTCVVVDVSHEDPEVKFNWYVDGVEVHNAKTKPREEQYNSTYRVVSVLTVLHQDWLNGKEYKCKVSNKALPAPIEKTISKAKGQPREPQVYTLPPIRELMTSNQVSLSCAVKGFYPSDIAVEWESNGQPENNYKTTPPVLDSDGSFFLVSKLTVDKSRWQQGNVFSCSVMHEALHNHYTQKSLSLSPGKSGSETPGTSESATPESGGGEVQLVESGGGLVQPGGSLRLSCAASGFNIHSSSIHWVRQAPGKGLEWVAATYSSFGSITYADSVKGRFTISADTSKNTAYLQMNSLRAEDTAVYYCARYHHPFGYALDYWGQGTLVTVSSGTTAASGSSGGSSSGADIQMTQSPSSLSASVGDRVTITCRASQSVSSAVAWYQQKPGKAPKLLIYSASSLYSGVPSRFSGSRSGTDFTLTISSLQPEDFATYYCQQGVYLFTFGQGTKVEIK
chain 2: MNLLLILTFVAAAVAEFEVQLVESGGGLVQPGGSLRLSCAASGFNISYSSIHWVRQAPGKGLEWVAYISSYYGYTYYADSVKGRFTISADTSKNTAYLQMNSLRAEDTAVYYCARAHYFPWAGAMDYWGQGTLVTVSSGGGGDIQMTQSPSSLSASVGDRVTITCRASQSVSSAVAWYQQKPGKAPKLLIYSASSLYSGVPSRFSGSRSGTDFTLTISSLQPEDFATYYCQQYYWPITFGQGTKVEIKLEDKTHTKVEPKTSDKTHTCPPCPAPELLGGPSVFLFPPKPKDTLMISRTPEVTCVVVDVSHEDPEVKFNWYVDGVEVHNAKTKPREEQYNSTYRVVSVLTVLHQDWLNGKEYKCKVSNKALPAPIEKTISKAKGQPREPMVFDLPPSREEMTKNQVSLWCMVKGFYPSDIAVEWESNGQPENNYKTTPPVLDSDGSFFLYSKLTVDKSRWQQGNVFSCSVMHEALHNHYTQKSLSLSPGKSGSETPGTSESATPESGGGEVQLVESGGGLVQPGGSLRLSCAASGFNIHSSSIHWVRQAPGKGLEWVAATYSSFGSITYADSVKGRFTISADTSKNTAYLQMNSLRAEDTAVYYCARYHHPFGYALDYWGQGTLVTVSSGTTAASGSSGGSSSGADIQMTQSPSSLSASVGDRVTITCRASQSVSSAVAWYQQKPGKAPKLLIYSASSLYSGVPSRFSGSRSGTDFTLTISSLQPEDFATYYCQQGVYLFTFGQGTKVEIK
In the case of B3, the % Wnt Maxima Avg worked out at 42%; the EC50 (nM), TOPFLASH assay was determined as 0.4 nM; the Maximal Signal (% Wnt3a maxima) (% Wnt3a maxima) was determined as 42; the Topflash EC50 (nM) Avg stood at 0.4 nM.

B4: CM0011 (Dia-Fc-Dia) (bispecific antibody)
chain 1: MNLLLILTFVAAAVAEFEVQLVESGGGLVQPGGSLRLSCAASGFNIGSSSIHWVRQAPGKGLEWVASIYSAFASTSYADSVKGRFTISADTSKNTAYLQMNSLRAEDTAVYYCARYHFPFGFALDYWGQGTLVTVSSGGGGSDIQMTQSPSSLSASVGDRVTITCRASQSVSSAVAWYQQKPGKAPKLLIYSASSLYSGVPSRFSGSRSGTDFTLTISSLQPEDFATYYCQQGVYLFTFGQGTKVEIKLEDKTHTKVEPKSSDKTHNCPPCPAPELLGGPSVFLFPPKPKDTLMISRTPEVTCVVVDVSHEDPEVKFNWYVDGVEVHNAKTKPREEQYNSTYRVVSVLTVLHQDWLNGKEYKCKVSNKALPAPIEKTISKAKGQPREPQVYTLPPIRELMTSNQVSLSCAVKGFYPSDIAVEWESNGQPENNYKTTPPVLDSDGSFFLVSKLTVDKSRWQQGNVFSCSVMHEALHNHYTQKSLSLSPGKSGSETPGTSESATPESGGGEVQLVESGGGLVQPGGSLRLSCAASGFNISSYYIHWVRQAPGKGLEWVASIYSSYGYTSYADSVKGRFTISADTSKNTAYLQMNSLRAEDTAVYYCARTVRGSKKPYFSGWAMDYWGQGTLVTVSSGGGGSDIQMTQSPSSLSASVGDRVTITCRASQSVSSAVAWYQQKPGKAPKLLIYSASSLYSGVPSRFSGSRSGTDFTLTISSLQPEDFATYYCQQYSWGPFTFGQGTKVEIK
chain 2: MNLLLILTFVAAAVAEFEVQLVESGGGLVQPGGSLRLSCAASGFNIGSSSIHWVRQAPGKGLEWVASIYSAFASTSYADSVKGRFTISADTSKNTAYLQMNSLRAEDTAVYYCARYHFPFGFALDYWGQGTLVTVSSGGGGSDIQMTQSPSSLSASVGDRVTITCRASQSVSSAVAWYQQKPGKAPKLLIYSASSLYSGVPSRFSGSRSGTDFTLTISSLQPEDFATYYCQQGVYLFTFGQGTKVEIKLEDKTHTKVEPKTSDKTHTCPPCPAPELLGGPSVFLFPPKPKDTLMISRTPEVTCVVVDVSHEDPEVKFNWYVDGVEVHNAKTKPREEQYNSTYRVVSVLTVLHQDWLNGKEYKCKVSNKALPAPIEKTISKAKGQPREPMVFDLPPSREEMTKNQVSLWCMVKGFYPSDIAVEWESNGQPENNYKTTPPVLDSDGSFFLYSKLTVDKSRWQQGNVFSCSVMHEALHNHYTQKSLSLSPGKSGSETPGTSESATPESGGGEVQLVESGGGLVQPGGSLRLSCAASGFNISYSSIHWVRQAPGKGLEWVAYISSYYGYTYYADSVKGRFTISADTSKNTAYLQMNSLRAEDTAVYYCARAHYFPWAGAMDYWGQGTLVTVSSGGGGSDIQMTQSPSSLSASVGDRVTITCRASQSVSSAVAWYQQKPGKAPKLLIYSASSLYSGVPSRFSGSRSGTDFTLTISSLQPEDFATYYCQQYYWPITFGQGTKVEIK
As for B4, the % Wnt Maxima Avg worked out at 63%; the EC50 (nM), TOPFLASH assay stood at 0.3 nM; the Maximal Signal (% Wnt3a maxima) (% Wnt3a maxima) stood at 63; the Topflash EC50 (nM) Avg was determined as 0.3 nM.
